From patent US20220306751A1 (MYTHIC THERAPEUTICS, published 2022) come the findings set out here.

This test addresses T1, CD123 Protein, His Tag, Acro Biosciences Cat. No. ILA-H52H6 (Homo sapiens (Human), UniProt P26951 19-305).
T1 construct: Bought protein; not shown: His tag
T1 sequence: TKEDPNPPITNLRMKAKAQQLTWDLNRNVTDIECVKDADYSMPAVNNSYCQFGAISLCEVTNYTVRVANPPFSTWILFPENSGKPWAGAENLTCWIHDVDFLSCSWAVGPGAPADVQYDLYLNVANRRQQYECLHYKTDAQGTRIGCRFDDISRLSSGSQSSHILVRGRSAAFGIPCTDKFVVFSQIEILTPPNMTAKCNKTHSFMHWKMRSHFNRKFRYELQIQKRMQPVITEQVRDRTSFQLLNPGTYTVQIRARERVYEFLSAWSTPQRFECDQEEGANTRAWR
Put plainly: BLI, IgG on anti-human Fc sensor, 50 nM CD123, pH 7.4 and pH 5.4. The text has this:
We selected IMGN632 (Heavy chain SEQ ID NO: 1, Light chain SEQ ID NO: 2) as a CD123-binding monoclonal antibody for pH engineering via histidine scanning. Briefly, CDRs in the heavy chain were identified using the methods described by Kabat et al (Kabat et al. (1992) Sequences of Proteins of Immunological Interest, DIANE publishing) and IMGT (Lefranc M P (1999) “The IMGT unique numbering for Immunoglobulins, T cell receptors and Ig-like domains” The Immunologist 7, 132-136), and for each CDR, residues falling under either or both Kabat and IMGT CDR definitions were called as CDR residues. To generate pH-dependent sequence variants, individual amino acid residues within the heavy chain CDRs were systematically substituted with a histidine, one at a time (MYT1252-MYT1292). In cases where the starting CDR residue was a histidine, it was mutated to an alanine. Antibody variants with only one histidine or alanine mutation in a heavy chain CDR were generated by co-transfection of Expi293 cells with a) one heavy chain sequence variant, and b) the corresponding starting ABPC light chain using methods known to the art. After allowing for four days of protein expression, cell culture supernatants were collected, quantified by SDS-PAGE analysis (FIG. 1), and the pH dependence of the variant was evaluated using biolayer interferometry (BLI) on an Octet RED 384 instrument. For constructs MYT1252, MYT1254-MYT1287, and MYT1289-1292, 104, of cell culture supernatant was diluted into 1904, of 1× PBST pH 7.4. For MYT1253 and MYT1288 254, and 504, of cell culture supernatant was diluted into 1754, and 1504, respectively. […] The resulting diluted supernatants were then captured on an anti-human Fc sensor (Forte Bio). A baseline was established using 1× PBST (50 mM Potassium Phosphate Buffer+150 mM NaCl+0.05% Tween 20) pH 7.4, and the sensor was associated with 50 nM of CD123 (CD123 Protein, His Tag, Acro Biosciences Cat. No. ILA-H52H6, Lot No. 1741d-89CF1-KB) in 1×PBST pH 7.4 for 120 sec to generate an association curve. In the dissociation phase, the antibody-antigen complex on the sensor was exposed to 1× PBST pH 7.4 for 300-600 sec. Baseline, association, and dissociation were repeated using 1×PBST pH 5.4 throughout in a separate condition.
For orientation: In BLI a coated tip is dipped into the sample, and binding shifts an interference pattern.

B1: MYT1414 (antibody, V domains shown)
VH: QVQLVQSGAEVKKPGASVKMSCKASHYTFTDYYMKWVKQAPGQGLEWIGDIIPSNGATFYNQKFKGKATLTVDRSISTAYMHLNRLRSDDTAVYYCTRSHLLRASWFAYWGQGTLVTVSS
VL: DFVMTQSPDSLAVSLGERATINCKSSQSLLNSGNQKNYLTWYLQKPGQPPKLLIYWASTRESGVPDRFSGSGSGTDFTLTISSLQAEDVAVYYCQNDYSYPYTFGQGTKLEIK
notes: IgG
For B1, the binding result is given as “binds”.

B2: MYT1421 (antibody, V domains shown)
VH: QVQLVQSGAEVKKPGASVKMSCKASGYTFTDYHMKWVKQAPGQGLEWIGDIIPSNGATFYNQKFKGKATLTVDRSISTAYMHLNRLRSDDTAVYYCTRSHLLRASWFAYWGQGTLVTVSS
VL: DFVMTQSPDSLAVSLGERATINCKSSQSLLNSGNQKNYLTWYLQKPGQPPKLLIYWASTRESGVPDRFSGSGSGTDFTLTISSLQAEDVAVYYCQNDYSYPYTFGQGTKLEIK
notes: IgG
In the case of B2, the binding result is “binds”.

B3: MYT1420 (antibody, V domains shown)
VH: QVQLVQSGAEVKKPGASVKMSCKASGYTFTDHYMKWVKQAPGQGLEWIGDIIPSNGATFYNQKFKGKATLTVDRSISTAYMHLNRLRSDDTAVYYCTRSHLLRASWFAYWGQGTLVTVSS
VL: DFVMTQSPDSLAVSLGERATINCKSSQSLLNSGNQKNYLTWYLQKPGQPPKLLIYWASTRESGVPDRFSGSGSGTDFTLTISSLQAEDVAVYYCQNDYSYPYTFGQGTKLEIK
notes: IgG
As to B3, the binding result is recorded as “binds”.

B4: MYT1419 (antibody, V domains shown)
VH: QVQLVQSGAEVKKPGASVKMSCKASGYTFTHYYMKWVKQAPGQGLEWIGDIIPSNGATFYNQKFKGKATLTVDRSISTAYMHLNRLRSDDTAVYYCTRSHLLRASWFAYWGQGTLVTVSS
VL: DFVMTQSPDSLAVSLGERATINCKSSQSLLNSGNQKNYLTWYLQKPGQPPKLLIYWASTRESGVPDRFSGSGSGTDFTLTISSLQAEDVAVYYCQNDYSYPYTFGQGTKLEIK
notes: IgG
For the molecule B4, the binding result was “binds”.

B5: MYT1415 (antibody, V domains shown)
VH: QVQLVQSGAEVKKPGASVKMSCKASGHTFTDYYMKWVKQAPGQGLEWIGDIIPSNGATFYNQKFKGKATLTVDRSISTAYMHLNRLRSDDTAVYYCTRSHLLRASWFAYWGQGTLVTVSS
VL: DFVMTQSPDSLAVSLGERATINCKSSQSLLNSGNQKNYLTWYLQKPGQPPKLLIYWASTRESGVPDRFSGSGSGTDFTLTISSLQAEDVAVYYCQNDYSYPYTFGQGTKLEIK
notes: IgG
B5: the binding result was “binds”.

B6: MYT1418 (antibody, V domains shown)
VH: QVQLVQSGAEVKKPGASVKMSCKASGYTFHDYYMKWVKQAPGQGLEWIGDIIPSNGATFYNQKFKGKATLTVDRSISTAYMHLNRLRSDDTAVYYCTRSHLLRASWFAYWGQGTLVTVSS
VL: DFVMTQSPDSLAVSLGERATINCKSSQSLLNSGNQKNYLTWYLQKPGQPPKLLIYWASTRESGVPDRFSGSGSGTDFTLTISSLQAEDVAVYYCQNDYSYPYTFGQGTKLEIK
notes: IgG
Regarding B6, the binding result is given as “binds”.

B7: MYT1416 (antibody, V domains shown)
VH: QVQLVQSGAEVKKPGASVKMSCKASGYHFTDYYMKWVKQAPGQGLEWIGDIIPSNGATFYNQKFKGKATLTVDRSISTAYMHLNRLRSDDTAVYYCTRSHLLRASWFAYWGQGTLVTVSS
VL: DFVMTQSPDSLAVSLGERATINCKSSQSLLNSGNQKNYLTWYLQKPGQPPKLLIYWASTRESGVPDRFSGSGSGTDFTLTISSLQAEDVAVYYCQNDYSYPYTFGQGTKLEIK
notes: IgG
Regarding B7, the binding result is reported as “binds”.

B8: MYT2791 (antibody, V domains shown)
VH: QVQLVQSGAEVKKPGASVKVSCKASGYIFTSSIMHWVRQAPGQGLEWIGYIKPYNDGTKYNEKFKGRATLTSDRSTSTAYMELSSLRSEDTAVYYCAREGGNDYYDTMDYWGQGTLVTVSS
VL: DIQMTQSPSSLSASVGDRVTITCRASQDINSYLSWFQQKPGKAPKTLIYRVNRLVDGVPSRFSGSGSGNDYTLTISSLQPEDFATYYCHQYDAFPYTFGQGTKVEIK
notes: IgG
Regarding B8, the binding result is on record as “binds”.

B9: MYT2798 (antibody, V domains shown)
VH: QVQLVQSGAEVKKPGASVKVSCKASGYIFTSSIMHWVRQAPGQGLEWIGYIKPYNDGTKYNEKFKGRATLTSDRSTSTAYMELSSLRSEDTAVYYCAREGGNDYYDTMDYWGQGTLVTVSS
VL: DIQMTQSPSSLSASVGDRVTITCRASQDINSYLSWFQQKPGKAPKTLIYRVNRLVDGVPSRFSGSGSGNDYTLTISSLQPEDFATYYCLQYDAFPHTFGQGTKVEIK
notes: IgG
Turning to B9, the binding result is given as “binds”.

B10: MYT2792 (antibody, V domains shown)
VH: QVQLVQSGAEVKKPGASVKVSCKASGYIFTSSIMHWVRQAPGQGLEWIGYIKPYNDGTKYNEKFKGRATLTSDRSTSTAYMELSSLRSEDTAVYYCAREGGNDYYDTMDYWGQGTLVTVSS
VL: DIQMTQSPSSLSASVGDRVTITCRASQDINSYLSWFQQKPGKAPKTLIYRVNRLVDGVPSRFSGSGSGNDYTLTISSLQPEDFATYYCLHYDAFPYTFGQGTKVEIK
notes: IgG
For the molecule B10, the binding result is “binds”.

B11: MYT2797 (antibody, V domains shown)
VH: QVQLVQSGAEVKKPGASVKVSCKASGYIFTSSIMHWVRQAPGQGLEWIGYIKPYNDGTKYNEKFKGRATLTSDRSTSTAYMELSSLRSEDTAVYYCAREGGNDYYDTMDYWGQGTLVTVSS
VL: DIQMTQSPSSLSASVGDRVTITCRASQDINSYLSWFQQKPGKAPKTLIYRVNRLVDGVPSRFSGSGSGNDYTLTISSLQPEDFATYYCLQYDAFHYTFGQGTKVEIK
notes: IgG
Take B11: the binding result is listed as “binds”.

B12: MYT2795 (antibody, V domains shown)
VH: QVQLVQSGAEVKKPGASVKVSCKASGYIFTSSIMHWVRQAPGQGLEWIGYIKPYNDGTKYNEKFKGRATLTSDRSTSTAYMELSSLRSEDTAVYYCAREGGNDYYDTMDYWGQGTLVTVSS
VL: DIQMTQSPSSLSASVGDRVTITCRASQDINSYLSWFQQKPGKAPKTLIYRVNRLVDGVPSRFSGSGSGNDYTLTISSLQPEDFATYYCLQYDHFPYTFGQGTKVEIK
notes: IgG
Regarding B12, the binding result is “binds”.

B13: MYT2796 (antibody, V domains shown)
VH: QVQLVQSGAEVKKPGASVKVSCKASGYIFTSSIMHWVRQAPGQGLEWIGYIKPYNDGTKYNEKFKGRATLTSDRSTSTAYMELSSLRSEDTAVYYCAREGGNDYYDTMDYWGQGTLVTVSS
VL: DIQMTQSPSSLSASVGDRVTITCRASQDINSYLSWFQQKPGKAPKTLIYRVNRLVDGVPSRFSGSGSGNDYTLTISSLQPEDFATYYCLQYDAHPYTFGQGTKVEIK
notes: IgG
For B13, the binding result is “binds”.

B14: MYT2793 (antibody, V domains shown)
VH: QVQLVQSGAEVKKPGASVKVSCKASGYIFTSSIMHWVRQAPGQGLEWIGYIKPYNDGTKYNEKFKGRATLTSDRSTSTAYMELSSLRSEDTAVYYCAREGGNDYYDTMDYWGQGTLVTVSS
VL: DIQMTQSPSSLSASVGDRVTITCRASQDINSYLSWFQQKPGKAPKTLIYRVNRLVDGVPSRFSGSGSGNDYTLTISSLQPEDFATYYCLQHDAFPYTFGQGTKVEIK
notes: IgG
Consider B14, for which the binding result was “binds”.

B15: MYT2794 (antibody, V domains shown)
VH: QVQLVQSGAEVKKPGASVKVSCKASGYIFTSSIMHWVRQAPGQGLEWIGYIKPYNDGTKYNEKFKGRATLTSDRSTSTAYMELSSLRSEDTAVYYCAREGGNDYYDTMDYWGQGTLVTVSS
VL: DIQMTQSPSSLSASVGDRVTITCRASQDINSYLSWFQQKPGKAPKTLIYRVNRLVDGVPSRFSGSGSGNDYTLTISSLQPEDFATYYCLQYHAFPYTFGQGTKVEIK
notes: IgG
Take B15: the binding result is “binds”.

B16: MYT2799 (antibody, V domains shown)
VH: QVQLVQSGAEVKKPGASVKVSCKASGYIFTSSIMHWVRQAPGQGLEWIGYIKPYNDGTKYNEKFKGRATLTSDRSTSTAYMELSSLRSEDTAVYYCAREGGNDYYDTMDYWGQGTLVTVSS
VL: DIQMTQSPSSLSASVGDRVTITCRASQDINSYLSWFQQKPGKAPKTLIYRVNRLVDGVPSRFSGSGSGNDYTLTISSLQPEDFATYYCLQYDAFPYHFGQGTKVEIK
notes: IgG
With B16, the binding result was “binds”.
